One assay addresses T1, HuHtrA1_PD(K225A) (human, UniProt F1N152 168-386 (bovine entry)).
T1 construct: Alanine mutant of HuHtrA1_PD; also called HuHtrA1 mutant K225A; not shown: thrombin cleavage site
T1 chain: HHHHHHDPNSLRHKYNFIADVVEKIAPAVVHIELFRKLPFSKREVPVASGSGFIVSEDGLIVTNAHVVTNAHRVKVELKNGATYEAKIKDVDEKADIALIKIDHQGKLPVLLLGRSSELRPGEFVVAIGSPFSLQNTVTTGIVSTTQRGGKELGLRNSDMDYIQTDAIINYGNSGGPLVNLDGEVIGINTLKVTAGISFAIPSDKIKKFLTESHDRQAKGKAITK
The assay can be described thus: binding ELISA, plate coated with mutant at 1 ug/ml, 20 min incubation.

Another assay concerns the target T2, HuHtrA1_PD(E247A) (human, UniProt F1N152 168-386 (bovine entry)).
T2 construct: Alanine mutant of HuHtrA1_PD; also called HuHtrA1 mutant E247A; not shown: thrombin cleavage site
T2 chain: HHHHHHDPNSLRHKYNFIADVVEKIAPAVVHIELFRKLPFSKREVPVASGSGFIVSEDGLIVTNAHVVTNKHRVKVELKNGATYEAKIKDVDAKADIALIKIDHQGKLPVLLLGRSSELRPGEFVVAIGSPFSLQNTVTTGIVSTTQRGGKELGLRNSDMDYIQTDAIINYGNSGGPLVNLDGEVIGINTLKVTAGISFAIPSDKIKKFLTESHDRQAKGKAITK
Described as above.

In another assay the target is T3, HuHtrA1_PD(T223A) (human, UniProt F1N152 168-386 (bovine entry)).
T3 construct: Alanine mutant of HuHtrA1_PD; also called HuHtrA1 mutant T223A; not shown: thrombin cleavage site
T3 chain: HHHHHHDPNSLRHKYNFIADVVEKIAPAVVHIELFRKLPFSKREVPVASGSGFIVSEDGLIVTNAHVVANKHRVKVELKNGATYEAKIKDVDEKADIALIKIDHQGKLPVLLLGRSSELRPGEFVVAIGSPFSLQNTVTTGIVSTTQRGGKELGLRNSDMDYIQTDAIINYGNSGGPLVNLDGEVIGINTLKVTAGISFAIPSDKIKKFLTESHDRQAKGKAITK
The assay is described as above.

In another assay the target is T4, HuHtrA1_PD(K243A) (human, UniProt F1N152 168-386 (bovine entry)).
T4 construct: Alanine mutant of HuHtrA1_PD; also called HuHtrA1 mutant K243A; not shown: thrombin cleavage site
T4 chain: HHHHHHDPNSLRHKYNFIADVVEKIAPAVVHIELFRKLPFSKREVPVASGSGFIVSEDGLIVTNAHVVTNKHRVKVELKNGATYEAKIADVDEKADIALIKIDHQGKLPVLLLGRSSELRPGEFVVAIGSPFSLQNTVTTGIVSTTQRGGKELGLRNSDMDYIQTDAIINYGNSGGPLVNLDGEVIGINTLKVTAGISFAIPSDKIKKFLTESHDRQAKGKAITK
Described as above.

Another assay addresses T5, HuHtrA1_PD(V201A) (human, UniProt F1N152 168-386 (bovine entry)).
T5 construct: Alanine mutant of HuHtrA1_PD; also called HuHtrA1 mutant V201A; not shown: thrombin cleavage site
T5 chain: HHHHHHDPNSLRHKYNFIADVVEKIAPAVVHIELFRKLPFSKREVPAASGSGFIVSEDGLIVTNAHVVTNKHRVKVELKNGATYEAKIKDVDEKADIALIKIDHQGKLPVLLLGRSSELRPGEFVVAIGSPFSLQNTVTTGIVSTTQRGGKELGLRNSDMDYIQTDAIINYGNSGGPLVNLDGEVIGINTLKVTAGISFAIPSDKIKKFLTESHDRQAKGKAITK
The description is as above.

The target of the next assay is T6, HuHtrA1_PD(H220A) (human, UniProt F1N152 168-386 (bovine entry)).
T6 construct: Alanine mutant of HuHtrA1_PD; also called HuHtrA1 mutant H220A; not shown: thrombin cleavage site
T6 chain: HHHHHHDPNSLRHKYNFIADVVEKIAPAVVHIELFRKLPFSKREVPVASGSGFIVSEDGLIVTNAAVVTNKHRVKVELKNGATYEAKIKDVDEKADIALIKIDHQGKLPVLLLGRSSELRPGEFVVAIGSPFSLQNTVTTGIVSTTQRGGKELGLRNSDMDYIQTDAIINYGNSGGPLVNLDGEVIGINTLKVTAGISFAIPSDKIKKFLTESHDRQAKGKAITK
The description is as above.

For assay [1], the target named is T7, Full length human HtrA1 (HuHtrA1) (Q23-P480), N-terminal His6 tag (human, UniProt Q92743 23-480). The assay can be described thus: cell-based or functional assay.
T7 sequence (Q92743 other isoform, or with tags, fused parts or gaps): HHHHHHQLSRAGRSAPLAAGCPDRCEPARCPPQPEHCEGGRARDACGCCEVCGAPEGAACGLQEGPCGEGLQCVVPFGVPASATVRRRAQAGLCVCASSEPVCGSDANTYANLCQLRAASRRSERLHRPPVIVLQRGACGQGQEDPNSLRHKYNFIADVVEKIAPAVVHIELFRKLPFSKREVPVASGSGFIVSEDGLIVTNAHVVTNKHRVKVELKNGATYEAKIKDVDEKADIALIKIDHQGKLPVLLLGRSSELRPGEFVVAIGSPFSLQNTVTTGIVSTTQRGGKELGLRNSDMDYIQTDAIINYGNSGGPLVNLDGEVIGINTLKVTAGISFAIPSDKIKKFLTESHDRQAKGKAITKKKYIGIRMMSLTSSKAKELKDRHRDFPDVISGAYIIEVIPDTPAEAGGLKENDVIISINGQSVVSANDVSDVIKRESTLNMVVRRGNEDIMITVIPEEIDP
Assay [2] concerns the target T8, Full length murine HtrA1 (MuHtrA1) (P24-P480), N-terminal His6 tag (murine, UniProt Q9R118 24-480). As to the kind of experiment: cell-based or functional assay.
The target in assay [3] is T7, Full length human HtrA1 (HuHtrA1) …. The assay can be described thus: phage competition ELISA: Fab-phage pre-incubated with serially diluted soluble HuHtrA1 (x axis), unbound phage captured on HuHtrA1-coated plate. Here is the method:
(§1) MAXISORP™ microtiter plates were coated with HuHtrA1 at 2 μg/ml in PBS for 2 hr at RT and then blocked with PBST buffer for another hour at RT. Purified phage from culture supernatants were incubated with serially diluted HuHtrA1 or MuHtrA1 in PBST buffer in a tissue-culture microtiter plate for an hour, after which 80 μl of the mixture was transferred to the HuHtrA1-coated wells for 15 minutes to capture unbound phage. The plate was washed with PBT buffer, and HRP-conjugated anti-M13 (Amersham Pharmacia Biotech) was added (1:5000 in PBST buffer) for one hour. The plate was washed with PBT buffer and developed by adding tetramethylbenzidine substrate (Kirkegaard and Perry Laboratories, Gaithersburg, Md.). The absorbance at 450 nm was plotted as a function of HuHtrA1 or MuHtrA1 concentration in solution to determine phage IC₅₀.

The target is the same in assay [4]. As to the kind of experiment: SPR (BIAcore T100), single-cycle kinetics, biotinylated human HtrA1 captured on streptavidin, Fab in solution. An excerpt:
(§2) To determine the binding affinity of HtrA1 antibodies by single cycle kinetics, Surface Plasmon Resonance (SRP) measurement with a BIAcore™ T100 instrument was used. Briefly, a series S sensor chip CM5 was activated with EDC and NHS reagents according to the supplier's instructions, and streptavidin (Pierce) was coupled to achieve approximately 2000 response units (RU), followed by blocking un-reacted groups with 1M ethanolamine.
(§3) For kinetics measurements, biotinylated human or murine HtrA1 was first injected at 10 ul/min flow rate to capture approximately 100 RU at 3 different flow cells (FC), except for FC1 (reference), and then 5-fold serial dilutions of anti-HtrA1 Fab in HBS-P buffer (0.01M HEPES pH 7.4, 0.15M NaCl, 0.005% surfactant P20) from low (0.48 nM) to high (300 nM) [5 points] were injected (flow rate: 30 μl/min) one after the other in the same cycle with no regeneration between injections. The sensorgram was recorded and subject to reference and buffer subtraction before evaluation by BIAcore™ T100 Evaluation Software (version 2.0). Association rates (km) and dissociation rates (koff) were calculated using a simple one-to-one Langmuir binding model. The equilibrium dissociation constant (Kd) was calculated as the ratio koff/kₒₙ.

The target in assay [5] is T8, Full length murine HtrA1 (MuHtrA1) …. The assay can be described thus: SPR (BIAcore T100), single-cycle kinetics, biotinylated murine HtrA1 captured on streptavidin, Fab in solution.
From the text: as §2, §3

Assay [6] concerns the target Protease domain of human HtrA1 (HuHtrA1_PD), residues D161-K379 (human, UniProt F1N152 168-386 (bovine entry)). As to the kind of experiment: cell-based or functional assay.
Assay [7] concerns the target T7, Full length human HtrA1 (HuHtrA1) …. The assay can be described thus: cell-based or functional assay. The source holds these as a separate data set.
Assay [8] deals with T8, Full length murine HtrA1 (MuHtrA1) …. The assay can be described thus: phage competition ELISA: Fab-phage pre-incubated with serially diluted soluble MuHtrA1 (x axis), unbound phage captured on HuHtrA1-coated plate. The method, then:
as §1

T8 sequence (Q9R118 other isoform, or with tags, fused parts or gaps): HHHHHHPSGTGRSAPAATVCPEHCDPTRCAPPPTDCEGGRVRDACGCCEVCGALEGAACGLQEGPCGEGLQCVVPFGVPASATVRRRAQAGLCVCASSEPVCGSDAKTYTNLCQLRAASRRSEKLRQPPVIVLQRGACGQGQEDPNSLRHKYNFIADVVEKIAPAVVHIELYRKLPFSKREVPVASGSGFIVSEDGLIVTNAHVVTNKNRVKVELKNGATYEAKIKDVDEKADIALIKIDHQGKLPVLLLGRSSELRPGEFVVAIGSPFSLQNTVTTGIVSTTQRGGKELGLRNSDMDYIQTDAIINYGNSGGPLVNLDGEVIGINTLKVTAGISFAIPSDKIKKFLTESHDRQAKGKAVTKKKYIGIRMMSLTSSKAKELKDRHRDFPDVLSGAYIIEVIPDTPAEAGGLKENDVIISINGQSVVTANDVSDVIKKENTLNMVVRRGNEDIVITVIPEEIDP
Sequence of Protease domain of human HtrA1 (HuHtrA1_PD), residues D161-K379 (F1N152 other isoform, or with tags, fused parts or gaps): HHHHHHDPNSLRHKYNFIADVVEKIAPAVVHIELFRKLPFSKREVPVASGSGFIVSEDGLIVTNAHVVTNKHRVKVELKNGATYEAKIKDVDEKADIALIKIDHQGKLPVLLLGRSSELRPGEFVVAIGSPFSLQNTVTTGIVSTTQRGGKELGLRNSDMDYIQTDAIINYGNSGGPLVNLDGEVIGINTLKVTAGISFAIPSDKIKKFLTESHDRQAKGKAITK

B1: IgG94 (anti-HtrA1 antibody YW505.94, IgG format) (antibody, V domains shown)
VH: EVQLVESGGGLVQPGGSLRLSCAASGFNISGYYIHWVRQAPGKGLEWVGWIDPYGGDTNYADSVKGRFTISADTSKNTAYLQMNSLRAEDTAVYYCARGTFLTSWGHYFDYWGQGT
VL: DIQMTQSPSSLSASVGDRVTITCRASQDVSTAVAWYQQKPGKAPKLLIYSASFLYSGVPSRFSGSGSGTDFTLTISSLQPEDFATYYCQQSYTTPPTFGQGTKVEIKR
notes: The VH as printed ends at WGQGT; also called antibody 94; Ab94
As for B1, the “fold reduction in binding (alanine mutant)” value with HuHtrA1_PD(K225A), with HuHtrA1_PD(E247A), with HuHtrA1_PD(T223A), with HuHtrA1_PD(K243A), with HuHtrA1_PD(V201A) and with HuHtrA1_PD(H220A) was at least 5 fold throughout. Besides, the entries for the “IC50, inhibition of BODIPY FL casein hydrolysis” value in assay [1] and in assay [2] were 8.3 nM and 5.4 nM, respectively. Besides, the “IC50, inhibition of H2-Opt peptide hydrolysis (FRET assay)” value in [1] is 1.8 nM. Besides, the “fold increase in inhibitory potency of IgG94 vs. Fab94” value in assay [1] was around 16 fold.

B2: YW505.94a Fab (Fab, V domains shown)
VH: EVQLVESGGGLVQPGGSLRLSCAASGFSISGYYIHWVRQAPGKGLEWVGWIDPYGGDTNYADSVKGRFTISADTSKNTAYLQMNSLRAEDTAVYYCARGTFLTSWGHYFDYWGQGT
VL: DIQMTQSPSSLSASVGDRVTITCRASQDVSTAVAWYQQKPGKAPKLLIYSASFLYSGVPSRFSGSGSGTDFTLTISSLQPEDFATYYCQQSYTTPPTFGQGTKVEIKR
notes: Tested as Fab
As to B2, the “IC50 (read off the curve)” value in assay [3] was around 6 nM. In [4], the Kd is 55 nM, the koff stood at 0.0448 s⁻¹ and the on-rate (kon) came out at 813000 M⁻¹ s⁻¹. In [5], this molecule gave a Kd of 58 nM, a koff of 0.0856 s⁻¹ and a kon of 1.48e+06 M⁻¹ s⁻¹.

B3: YW505.94a.28 IgG (antibody, V domains shown)
VH: EVQLVESGGGLVQPGGSLRLSCAASGFSISGYYIHWVRQAPGKGLEWVGWIDPYGGDTNYADSVKGRFTISADTSKNTAYLQMNSLRAEDTAVYYCARGTFLTSWGHYFDYWGQGT
VL: DIQMTQSPSSLSASVGDRVTITCRASQSINTYLAWYQQKPGKAPKLLIYSASFLYSGVPSRFSGSGSGTDFTLTISSLQPEDFATYYCQQSDDTPPTFGQGTKVEIKR
In the case of B3, in assay [6], the “IC50, inhibition of H2-Opt hydrolysis (FRET assay, 1.5 nM HuHtrA1_PD)” value came out at 0.229 nM. The “IC50, inhibition of H2-Opt hydrolysis (FRET assay, 1.0 nM HuHtrA1)” value in assay [7] was determined as 0.335 nM.

B4: YW505.94a.54 Fab (Fab, V domains shown)
VH: EVQLVESGGGLVQPGGSLRLSCAASGFSISGYYIHWVRQAPGKGLEWVGWIDPYGGDTNYADSVKGRFTISADTSKNTAYLQMNSLRAEDTAVYYCARGTFLTSWGHYFDYWGQGT
VL: DIQMTQSPSSLSASVGDRVTITCRASQVVGNYLAWYQQKPGKAPKLLIYSASFLYSGVPSRFSGSGSGTDFTLTISSLQPEDFATYYCQQSDDHPPTFGQGTKVEIKR
On to B4, for which the results for the “IC50 (read off the curve)” value in [3] and in assay [8] were around 0.5 nM and around 2 nM, respectively. Moreover, the Kd was 2.6 nM in assay [4] and 1.6 nM in assay [5]. In addition, the koff was 0.00784 s⁻¹ in [4] and 0.00455 s⁻¹ in assay [5]. In addition, the kon in assay [4] amounted to 2.97e+06 M⁻¹ s⁻¹; in assay [5], 2.82e+06 M⁻¹ s⁻¹.

B5: YW505.94a.28 Fab (Fab, V domains shown)
VH: EVQLVESGGGLVQPGGSLRLSCAASGFSISGYYIHWVRQAPGKGLEWVGWIDPYGGDTNYADSVKGRFTISADTSKNTAYLQMNSLRAEDTAVYYCARGTFLTSWGHYFDYWGQGT
VL: DIQMTQSPSSLSASVGDRVTITCRASQSINTYLAWYQQKPGKAPKLLIYSASFLYSGVPSRFSGSGSGTDFTLTISSLQPEDFATYYCQQSDDTPPTFGQGTKVEIKR
In [4], B5 showed a Kd of 3.4 nM, a koff of 0.00574 s⁻¹ and a kon of 1.69e+06 M⁻¹ s⁻¹. Moreover, in assay [6], the “IC50, inhibition of H2-Opt hydrolysis (FRET assay, 1.5 nM HuHtrA1_PD)” value amounted to 2.03 nM. Moreover, in assay [7], the “IC50, inhibition of H2-Opt hydrolysis (FRET assay, 1.0 nM HuHtrA1)” value was found to be 1.95 nM. For the same molecule, in assay [5], the Kd came out at 4.6 nM, the koff was 0.0093 s⁻¹ and the kon amounted to 2.02e+06 M⁻¹ s⁻¹.

The values are drawn from patent US20190016826A1 (Genentech, published 2019).
